In one data set the target is T1, CyPet-BCL11B_(42-94) (UniProt Q9C0K0 42-94).
T1 construct: B-cell lymphoma/leukemia 11B (BCL11B), N-terminal atypical CCHC zinc finger domain, amino acids 42-94; codon-optimized insert; Order on the chain: His6, CyPet, flexible linker (GGGGS)3, TEV-cleaving site, XhoI site, BCL11B 42-94, KpnI site; Fusion of 36 kDa; CyPet already has lysine at position 206; also called fluorescently tagged BCL11B_(42-94); CyPet-tagged N-terminal BCL11B CCHC zinc finger …
T1 sequence (looked up): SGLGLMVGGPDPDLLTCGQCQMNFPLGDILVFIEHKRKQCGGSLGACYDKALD
Nature of the data set: FRET or BRET; CyPet- and mEYFP-tagged domain mixed 1:1, total protein 200 µg/mL, 20 mM HEPES, 150 mM NaCl, 1 mM DTT, pH 7.4; incubated 48 h at 4 °C; excitation 400 nm, emission spectra 420-700 nm at room temperature. The conditions noted are these: both partners purified.

Data set [1] concerns the molecule itself. The data set can be described thus: SEC; Superdex 200 Increase 3.2/300 on ÄKTAmicro; sizes from a calibration curve with protein standards.

These results are taken from paper PMC8708588, “Easy Expression and Purification of Fluorescent N-Terminal BCL11B CCHC Zinc Finger Domain” (Molecules, 2021).

B1: mEYFP-BCL11B_(42-94) (domain or fragment, UniProt Q9C0K0 42-94, looked up)
chain: T1 sequence (looked up)
notes: B-cell lymphoma/leukemia 11B (BCL11B), N-terminal atypical CCHC zinc finger domain, amino acids 42-94; codon-optimized insert; Fusion of 36 kDa; also called fluorescently tagged BCL11B_(42-94); source: E. coli NiCo21 (DE3), purified (IMAC, HisTrap excel); not shown: His6, N-terminal, kept; mEYFP (EYFP with A206K), N-terminal, kept
On to B1, for which the binding result (with CyPet-BCL11B_(42-94); in data set [1]) was “binds” in each case.

B2: untagged BCL11B_(42-94) zinc finger domain (domain or fragment)
chain: GLESGLGLMVGGPDPDLLTCGQCQMNFPLGDILVFIEHKRKQCGGSLGACYDKALD
notes: B-cell lymphoma/leukemia 11B (BCL11B), N-terminal atypical CCHC zinc finger domain, amino acids 42-94; 5.5 kDa; source: E. coli NiCo21 (DE3); TEV digest of purified CyPet- or mEYFP-BCL11B_(42-94), flow-through of IMAC; not shown: His6, N-terminal, cleaved; CyPet or mEYFP, N-terminal, cleaved
B2: the “stoichiometry N” value in data set [1] stood at 4.
